Laboratory results as given in patent publication US20240279357A1 (THERINI BIO, published 2024).

T1: P2 peptide comprising SEQ ID NO: 31 (human fibrin γ377-395) (human)
T1 construct: Bought (CPC Scientific 920712); also called human P2 peptide
T1 peptide: YSMKKTTMKIIPFNRLTIG

B1: VH1/VK4 (antibody, V domains shown)
VH: QVQLVQSGAELKKPGTSVKLSCKASGYTFTSYWIHWVKQAPGQGLEWIGLIDPSDSYTNYNQKFRGRATLTVDTSTSTAYMQLSSLTSEDSAVYYCASSDPTGCWGQGTTVTVSS
VL: DIVMTQSPLSLPVTPGEPASISCRSSKSLLHSSGITYLSWYLQKPGQSPQLLIYQMSNLASGVPDRFSGSGSGTDFTLKISRVEAEDVGVYYCAQNLELPLTFGQGTKLEIK
B2: VH1/VK2 (antibody, V domains shown)
VH: QVQLVQSGAELKKPGTSVKLSCKASGYTFTSYWIHWVKQAPGQGLEWIGLIDPSDSYTNYNQKFRGRATLTVDTSTSTAYMQLSSLTSEDSAVYYCASSDPTGCWGQGTTVTVSS
VL: DIVMTQAAFSNPVTPGTPASISCRSSKSLLHSSGITYLSWYLQKPGQSPQLLIYQMSNLASGVPDRFSSSGSGTDFTLKISRVEAEDVGVYYCAQNLELPLTFGQGTKLEIK
B3: VH1/VK1 (antibody, V domains shown)
VH: QVQLVQSGAELKKPGTSVKLSCKASGYTFTSYWIHWVKQAPGQGLEWIGLIDPSDSYTNYNQKFRGRATLTVDTSTSTAYMQLSSLTSEDSAVYYCASSDPTGCWGQGTTVTVSS
VL: DIVMTQAAFSNPITPGTPASISCRSSKSLLHSSGITYLSWYLQKPGQSPQLLIYQMSNLASGVPDRFSSSGSGTDFTLRISRVEAEDVGVYYCAQNLELPLTFGQGTKLEIK
B4: VH1/VK3 (antibody, V domains shown)
VH: QVQLVQSGAELKKPGTSVKLSCKASGYTFTSYWIHWVKQAPGQGLEWIGLIDPSDSYTNYNQKFRGRATLTVDTSTSTAYMQLSSLTSEDSAVYYCASSDPTGCWGQGTTVTVSS
VL: DIVMTQSPLSLPVTPGEPASISCRSSKSLLHSSGITYLSWYLQKPGQSPQLLIYQMSNLASGVPDRFSSSGSGTDFTLKISRVEAEDVGVYYCAQNLELPLTFGQGTKLEIK
B5: VH4/VK3 (antibody, V domains shown)
VH: QVQLVQSGAEVKKPGSSVKVSCKASGYTFTSYWIHWVRQAPGQGLEWIGLIDPSDSYTNYNQKFRGRVTITVDTSTSTAYMELSSLRSEDTAVYYCASSDPTGCWGQGTTVTVSS
VL: DIVMTQSPLSLPVTPGEPASISCRSSKSLLHSSGITYLSWYLQKPGQSPQLLIYQMSNLASGVPDRFSSSGSGTDFTLKISRVEAEDVGVYYCAQNLELPLTFGQGTKLEIK
B6: VH5/VK1 (antibody, IgG1, V domains shown)
VH: QVQLVQSGAEVKKPGSSVKVSCKASGYTFTSYWIHWVRQAPGQGLEWIGLIDPSDSYTNYNQKFRGRVTITRDTSTSTAYMELSSLRSEDTAVYYCASSDPTGCWGQGTTVTVSS
VL: DIVMTQAAFSNPITPGTPASISCRSSKSLLHSSGITYLSWYLQKPGQSPQLLIYQMSNLASGVPDRFSSSGSGTDFTLRISRVEAEDVGVYYCAQNLELPLTFGQGTKLEIK
notes: Expressed as IgG1
B7: VH6/VK1 (antibody, IgG1, V domains shown)
VH: QVQLVQSGAEVKKPGSSVKVSCKASGYTFTSYWIHWVRQAPGQGLEWIGLIDPSDSYTNYNQKFQGRVTITRDTSTSTAYMELSSLRSEDTAVYYCASSDPTGCWGQGTTVTVSS
VL: DIVMTQAAFSNPITPGTPASISCRSSKSLLHSSGITYLSWYLQKPGQSPQLLIYQMSNLASGVPDRFSSSGSGTDFTLRISRVEAEDVGVYYCAQNLELPLTFGQGTKLEIK
notes: Expressed as IgG1
B8: VH6/VK3 (antibody, IgG1, V domains shown)
VH: QVQLVQSGAEVKKPGSSVKVSCKASGYTFTSYWIHWVRQAPGQGLEWIGLIDPSDSYTNYNQKFQGRVTITRDTSTSTAYMELSSLRSEDTAVYYCASSDPTGCWGQGTTVTVSS
VL: DIVMTQSPLSLPVTPGEPASISCRSSKSLLHSSGITYLSWYLQKPGQSPQLLIYQMSNLASGVPDRFSSSGSGTDFTLKISRVEAEDVGVYYCAQNLELPLTFGQGTKLEIK
notes: Expressed as IgG1
B9: VH4/VK4 (antibody, IgG1, V domains shown)
VH: QVQLVQSGAEVKKPGSSVKVSCKASGYTFTSYWIHWVRQAPGQGLEWIGLIDPSDSYTNYNQKFRGRVTITVDTSTSTAYMELSSLRSEDTAVYYCASSDPTGCWGQGTTVTVSS
VL: DIVMTQSPLSLPVTPGEPASISCRSSKSLLHSSGITYLSWYLQKPGQSPQLLIYQMSNLASGVPDRFSGSGSGTDFTLKISRVEAEDVGVYYCAQNLELPLTFGQGTKLEIK
notes: Expressed as IgG1
B10: VH5/VK4 (antibody, IgG1, V domains shown)
VH: QVQLVQSGAEVKKPGSSVKVSCKASGYTFTSYWIHWVRQAPGQGLEWIGLIDPSDSYTNYNQKFRGRVTITRDTSTSTAYMELSSLRSEDTAVYYCASSDPTGCWGQGTTVTVSS
VL: DIVMTQSPLSLPVTPGEPASISCRSSKSLLHSSGITYLSWYLQKPGQSPQLLIYQMSNLASGVPDRFSGSGSGTDFTLKISRVEAEDVGVYYCAQNLELPLTFGQGTKLEIK
notes: Expressed as IgG1
B11: VH5/VK3 (antibody, IgG1, V domains shown)
VH: QVQLVQSGAEVKKPGSSVKVSCKASGYTFTSYWIHWVRQAPGQGLEWIGLIDPSDSYTNYNQKFRGRVTITRDTSTSTAYMELSSLRSEDTAVYYCASSDPTGCWGQGTTVTVSS
VL: DIVMTQSPLSLPVTPGEPASISCRSSKSLLHSSGITYLSWYLQKPGQSPQLLIYQMSNLASGVPDRFSSSGSGTDFTLKISRVEAEDVGVYYCAQNLELPLTFGQGTKLEIK
notes: Expressed as IgG1
B12: VH4 C102A/VK2 (antibody, IgG1, V domains shown)
VH: QVQLVQSGAEVKKPGSSVKVSCKASGYTFTSYWIHWVRQAPGQGLEWIGLIDPSDSYTNYNQKFRGRVTITVDTSTSTAYMELSSLRSEDTAVYYCASSDPTGAWGQGTTVTVSS
VL: DIVMTQAAFSNPVTPGTPASISCRSSKSLLHSSGITYLSWYLQKPGQSPQLLIYQMSNLASGVPDRFSSSGSGTDFTLKISRVEAEDVGVYYCAQNLELPLTFGQGTKLEIK
notes: IgG1, tested from HEK supernatant
B13: VH4 C102S/VK2 (antibody, IgG1, V domains shown)
VH: QVQLVQSGAEVKKPGSSVKVSCKASGYTFTSYWIHWVRQAPGQGLEWIGLIDPSDSYTNYNQKFRGRVTITVDTSTSTAYMELSSLRSEDTAVYYCASSDPTGSWGQGTTVTVSS
VL: DIVMTQAAFSNPVTPGTPASISCRSSKSLLHSSGITYLSWYLQKPGQSPQLLIYQMSNLASGVPDRFSSSGSGTDFTLKISRVEAEDVGVYYCAQNLELPLTFGQGTKLEIK
notes: as for B12
B14: VH4 C102L/VK2 (antibody, IgG1, V domains shown)
VH: QVQLVQSGAEVKKPGSSVKVSCKASGYTFTSYWIHWVRQAPGQGLEWIGLIDPSDSYTNYNQKFRGRVTITVDTSTSTAYMELSSLRSEDTAVYYCASSDPTGLWGQGTTVTVSS
VL: DIVMTQAAFSNPVTPGTPASISCRSSKSLLHSSGITYLSWYLQKPGQSPQLLIYQMSNLASGVPDRFSSSGSGTDFTLKISRVEAEDVGVYYCAQNLELPLTFGQGTKLEIK
notes: IgG1, tested from HEK supernatant; also called VH4-102L
B15: VH4 C102G/VK2 (antibody, IgG1, V domains shown)
VH: QVQLVQSGAEVKKPGSSVKVSCKASGYTFTSYWIHWVRQAPGQGLEWIGLIDPSDSYTNYNQKFRGRVTITVDTSTSTAYMELSSLRSEDTAVYYCASSDPTGGWGQGTTVTVSS
VL: DIVMTQAAFSNPVTPGTPASISCRSSKSLLHSSGITYLSWYLQKPGQSPQLLIYQMSNLASGVPDRFSSSGSGTDFTLKISRVEAEDVGVYYCAQNLELPLTFGQGTKLEIK
notes: IgG1, tested from HEK supernatant; also called VH4-102G

Target: T1, P2 peptide comprising SEQ ID NO: 31 …
Assay: SPR (Biacore) single cycle, steady state fit; IgG from HEK supernatant captured, P2 peptide analyte
Method: FIG. 18 illustrates the procedure used for the single cycle kinetics analysis. The Biacore T200 […] instrument was used for single cycle kinetics analysis with the control software v2.0.1, and evaluation software V3.0. The anti-human capture chip was used with a running buffer consisting of HBS-P+ buffer (pH 7.4) containing 0.1% BSA at 25° C. a flow rate of 30 μl/min. Neat HEK supernatants were used as ligand and loaded to ˜1674 RU at 10 μl/min. P2 peptide comprising SEQ ID NO: 31 (CPC Scientific 920712, Lot #CS-02-00350) was the analyte for the analysis. […] Regeneration was performed with MgCl₂. Antibodies were diluted in running buffer to a final concentration of 20 μg/ml, based on concentrations assessed by Octet titre. At the start of each cycle, antibodies were loaded onto Fc2, Fc3 and Fc4 of the anti-human capture chip (GE Healthcare, Little Chalfont, UK). IgGs were captured at a flow rate of 10 μl/min to give an immobilization level (RL) of ˜ 1674 RU, the theoretical value to obtain an RMax of ˜50 RU. The surface was then allowed to stabilize. Single cycle kinetic data was obtained with P2 peptide as the analyte at a flow rate of 30 μl/min to minimize any potential mass transport limitations. […] The signal from the reference channel Fc1 (no antibody) was subtracted from that of Fc2, Fc3 and Fc4 to correct for differences in non-specific binding to a reference surface. […] The association phase for the five injections of increasing concentrations of P2 peptide was monitored for 20 seconds each time and a single dissociation phase was measured for 25 seconds following the last injection analyte. Regeneration of the anti-human capture surface was conducted using one injection of 3.8 M magnesium chloride.

First: B1
Second: B2
The Kd of the first is 1.8-fold higher: 176 µM for the first, 96.4 µM for the second. The second binds more tightly here.

First: B3
Second: B4
The Kd of the first is 1.9-fold lower: 104 µM for the first, 200 µM for the second.

B5 and B6 are within 1.5-fold of each other in Kd: 148 µM for the first, 173 µM for the second.

B7 and B8 are within 1.5-fold of each other in Kd: 174 µM for the first, 192 µM for the second.

First: B9
Second: B10
The Kd of the first is 1.8-fold lower: 157 µM for the first, 277 µM for the second. The first binds more tightly here.

With B11 the Kd was 279 µM.

First: B1
Second: B2
The “Relative KD” value of the first is higher: 1.98 fold against VH0/VK0 for the first, 1.09 fold against VH0/VK0 for the second.

Compared with B4, B5 is lower in “Relative KD” value: 2.25 fold against VH0/VK0 for the first, 1.67 fold against VH0/VK0 for the second.

First: B6
Second: B7
The “Relative KD” value of the first is lower: 1.95 fold against VH0/VK0 for the first, 1.96 fold against VH0/VK0 for the second.

First: B8
Second: B9
The “Relative KD” value of the first is higher: 2.16 fold against VH0/VK0 for the first, 1.77 fold against VH0/VK0 for the second.

Going from B10 to B11, the “Relative KD” value rises from 3.12 fold against VH0/VK0 to 3.15 fold against VH0/VK0.

Target: T1, P2 peptide comprising SEQ ID NO: 31 …
Assay: SPR (Biacore) single cycle, steady state affinity; IgG from HEK supernatant captured, γ377-395 peptide analyte

B12 and B13 are within 1.5-fold of each other in Kd: 72 µM for the first, 66 µM for the second.

First: B14
Second: B15
The Kd of the first is 4.2-fold higher: 93 µM for the first, 22 µM for the second.

Going from B12 to B13, the “Relative KD” value falls from 1.53 fold against VH4/VK2 to 1.41 fold against VH4/VK2.

First: B14
Second: B15
The “Relative KD” value of the first is higher: 1.98 fold against VH4/VK2 for the first, 0.59 fold against VH4/VK2 for the second.
